These results are taken from patent US20240240159A1.

Holding throughout (assay): cell-based or functional assay
In assay [1] the target is 358BP NTproBNP epitope-grafted FAD-GDH.
Assay [2] deals with 341BP NTproBNP epitope-grafted FAD-GDH.
The target in assay [3] is Purified NTproBNP antigen (UniProt P16860).
In assay [4] the target is 358HNL-H1 epitope-grafted FAD-GDH.
The target of assay [5] is 358HNL-H3 epitope-grafted FAD-GDH.
Assay [6] has as its target 341V5 epitope-grafted FAD-GDH.
The target of assay [7] is V5 peptide, Sigma (cat #V7754-4MG).

Sequence of 358BP NTproBNP epitope-grafted FAD-GDH (chain, as listed by the source): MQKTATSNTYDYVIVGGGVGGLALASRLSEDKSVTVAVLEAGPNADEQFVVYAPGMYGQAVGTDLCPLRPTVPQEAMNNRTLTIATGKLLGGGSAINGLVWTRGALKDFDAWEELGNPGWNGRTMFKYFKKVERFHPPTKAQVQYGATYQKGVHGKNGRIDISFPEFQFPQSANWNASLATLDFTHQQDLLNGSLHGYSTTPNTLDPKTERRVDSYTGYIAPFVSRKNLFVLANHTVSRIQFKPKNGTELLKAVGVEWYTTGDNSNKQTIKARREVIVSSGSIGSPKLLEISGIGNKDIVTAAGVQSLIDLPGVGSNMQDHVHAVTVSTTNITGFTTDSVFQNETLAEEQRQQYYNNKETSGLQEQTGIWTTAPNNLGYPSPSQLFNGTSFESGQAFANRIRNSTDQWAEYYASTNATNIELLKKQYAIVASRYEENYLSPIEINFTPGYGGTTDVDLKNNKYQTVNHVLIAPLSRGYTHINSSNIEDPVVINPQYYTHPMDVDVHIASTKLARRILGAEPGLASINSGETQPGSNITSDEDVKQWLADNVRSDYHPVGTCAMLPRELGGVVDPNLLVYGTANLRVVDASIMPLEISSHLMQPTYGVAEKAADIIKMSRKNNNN
Sequence of UniProt P16860 (P16860 27-134 limits assumed): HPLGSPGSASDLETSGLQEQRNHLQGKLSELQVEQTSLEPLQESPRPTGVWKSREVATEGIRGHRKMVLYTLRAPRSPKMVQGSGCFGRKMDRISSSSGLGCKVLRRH
Sequence of 358HNL-H3 epitope-grafted FAD-GDH (chain, as listed by the source): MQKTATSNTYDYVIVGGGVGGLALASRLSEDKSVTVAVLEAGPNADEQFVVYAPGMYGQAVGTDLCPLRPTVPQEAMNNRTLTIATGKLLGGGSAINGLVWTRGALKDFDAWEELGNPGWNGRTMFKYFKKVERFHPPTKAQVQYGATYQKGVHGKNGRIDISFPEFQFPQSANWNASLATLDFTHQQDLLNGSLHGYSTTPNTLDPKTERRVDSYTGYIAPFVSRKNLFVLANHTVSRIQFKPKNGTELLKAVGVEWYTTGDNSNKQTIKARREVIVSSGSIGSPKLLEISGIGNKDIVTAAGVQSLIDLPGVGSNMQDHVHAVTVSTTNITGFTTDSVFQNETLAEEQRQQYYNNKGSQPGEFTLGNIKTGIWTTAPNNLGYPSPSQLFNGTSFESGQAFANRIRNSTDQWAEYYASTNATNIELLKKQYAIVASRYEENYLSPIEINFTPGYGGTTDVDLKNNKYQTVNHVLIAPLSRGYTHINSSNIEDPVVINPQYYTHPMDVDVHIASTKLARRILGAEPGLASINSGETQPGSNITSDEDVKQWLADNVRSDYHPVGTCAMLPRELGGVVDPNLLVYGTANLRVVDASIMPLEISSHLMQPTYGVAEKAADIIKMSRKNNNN
Sequence of 358HNL-H1 epitope-grafted FAD-GDH (chain, as listed by the source): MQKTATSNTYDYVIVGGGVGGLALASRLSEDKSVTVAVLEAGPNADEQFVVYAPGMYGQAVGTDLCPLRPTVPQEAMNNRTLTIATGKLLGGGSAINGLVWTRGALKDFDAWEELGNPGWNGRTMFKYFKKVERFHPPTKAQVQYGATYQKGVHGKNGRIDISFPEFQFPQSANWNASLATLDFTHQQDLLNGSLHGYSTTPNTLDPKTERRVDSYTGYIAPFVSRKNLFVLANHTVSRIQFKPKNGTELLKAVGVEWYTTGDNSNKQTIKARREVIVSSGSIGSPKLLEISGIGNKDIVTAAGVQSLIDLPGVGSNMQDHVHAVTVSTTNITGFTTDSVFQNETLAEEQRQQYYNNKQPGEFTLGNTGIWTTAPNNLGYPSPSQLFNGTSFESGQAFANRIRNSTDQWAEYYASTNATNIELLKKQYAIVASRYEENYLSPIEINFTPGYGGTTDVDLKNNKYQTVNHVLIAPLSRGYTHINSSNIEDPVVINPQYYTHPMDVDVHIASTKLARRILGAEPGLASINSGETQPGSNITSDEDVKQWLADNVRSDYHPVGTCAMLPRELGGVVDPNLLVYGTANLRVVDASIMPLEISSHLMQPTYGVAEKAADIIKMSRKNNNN
Sequence of 341BP NTproBNP epitope-grafted FAD-GDH (chain, as listed by the source): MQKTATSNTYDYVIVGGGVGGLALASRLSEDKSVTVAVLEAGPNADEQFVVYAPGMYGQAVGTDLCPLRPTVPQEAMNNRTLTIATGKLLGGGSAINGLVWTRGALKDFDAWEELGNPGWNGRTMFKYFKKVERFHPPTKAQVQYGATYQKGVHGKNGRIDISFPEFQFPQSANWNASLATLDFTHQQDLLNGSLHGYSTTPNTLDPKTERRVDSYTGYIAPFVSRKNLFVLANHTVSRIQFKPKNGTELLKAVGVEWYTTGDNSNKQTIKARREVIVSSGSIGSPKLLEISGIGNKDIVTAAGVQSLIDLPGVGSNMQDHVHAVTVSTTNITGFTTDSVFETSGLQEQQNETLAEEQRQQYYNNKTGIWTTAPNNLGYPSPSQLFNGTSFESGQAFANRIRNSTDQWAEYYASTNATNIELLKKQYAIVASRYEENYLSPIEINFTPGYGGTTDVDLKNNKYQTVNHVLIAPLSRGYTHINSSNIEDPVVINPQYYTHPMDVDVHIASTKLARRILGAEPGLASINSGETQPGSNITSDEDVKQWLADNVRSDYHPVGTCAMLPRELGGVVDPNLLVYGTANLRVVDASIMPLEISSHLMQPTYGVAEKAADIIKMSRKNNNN

On to “Mouse α-NTproBNP antibody, Biorad (cat #MCA2641)”, for which the values for the percent inhibition of GDH activity, 500 nM antibody in assay [1] and in assay [2] were 7% and 25%, respectively. Moreover, the percent inhibition of 341BP / 358BP by 500 nM antibody in the presence of 5 µM NTproBNP antigen in assay [3] is 0%.
“Mouse α-NTproBNP antibody, Novus (cat #NB200-439)”: in assay [1], the percent inhibition of GDH activity, 500 nM antibody is 7%. Besides, the percent inhibition by 500 nM Novus antibody in the presence of 5 µM NTproBNP antigen in assay [3] was 0%.
Regarding “Rabbit α-HNL mAb, Abcam (cat #ab206427) (antibody)”, the percent inhibition of GDH activity, 25 nM antibody in assay [4] amounted to 20%; in assay [5] it was 60%.
“α-V5 antibody, mouse monoclonal, Sigma (cat #V8012-50UG)” registered a percent inhibition of GDH activity, 300 nM antibody in assay [6] of 50%. For the same substance, the percent inhibition of 341V5 by 300 nM α-V5 antibody in the presence of 3 µM V5 peptide in assay [7] is 9%.
